Measurements: patent US20190351025A1 (HUDSON INSTITUTE OF MEDICAL RESEARCH, published 2019)
Each block holds one molecule with its values, some of them ahead of it.

Columns and labels:
[1] = target: mIFNAR2-ECD C94S (extracellular domain of mouse IFNAR2, His-tagged) (mouse) (UniProt O35664); assay: SPR, ProteOn XPR36, His-tagged receptor on HTG chip, Langmuir model, mean of 10 experiments
[2] = target: T1, mIFNAR1-ECD (extracellular domain of mouse IFNAR1, His-tagged) (mouse, UniProt P33896 27-429); assay: SPR, ProteOn XPR36, His-tagged receptor on HTG chip, Langmuir model, n=10 experiments
T1 construct: extracellular domain; The tag is placed at the C-terminus here only for lack of information; not shown: His-tag
T1 sequence (looked up): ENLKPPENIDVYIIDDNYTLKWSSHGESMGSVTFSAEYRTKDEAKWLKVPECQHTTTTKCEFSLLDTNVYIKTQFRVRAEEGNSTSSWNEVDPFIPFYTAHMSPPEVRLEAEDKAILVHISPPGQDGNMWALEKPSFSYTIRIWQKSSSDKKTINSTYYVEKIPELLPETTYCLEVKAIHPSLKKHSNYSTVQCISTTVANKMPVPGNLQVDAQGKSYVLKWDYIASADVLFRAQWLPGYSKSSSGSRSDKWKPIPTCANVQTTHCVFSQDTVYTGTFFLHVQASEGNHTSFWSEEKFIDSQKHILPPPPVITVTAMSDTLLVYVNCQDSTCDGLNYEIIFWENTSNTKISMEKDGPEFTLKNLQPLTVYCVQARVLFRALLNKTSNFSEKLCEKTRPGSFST
Protocol: (§1) For Surface Plasmon Resonance (SPR), mIFNAR1-ECD and rmIFN were expressed and purified from mammalian cell and insect cell culture, respectively, as previously described (Stifter et al. (2014) Protein Expr Purif 94:7-14); mIFNAR2-ECDC94S and rmIFN 1 were expressed and purified from mammalian cell culture also as previously described (de Weerd et al. (2013) supra). huIFNε is produced in a similar manner All SPR experiments were carried out on a ProteOn XPR36 (Bio-Rad Labs) using a HTG chip for His-tagged proteins and TBS as the running buffer. mIFNAR1-ECD and mIFNAR2-ECDC94S were immobilized to the nickel activated chip via the His-tags after dilution to […] in TBS. All IFNs (rmIFN 1, rmIFN and rmIFN) were diluted in TBS to various concentrations ranging from 40 nM to […]. All data were referenced according to the manufacturer's instructions (Bio-Rad) and analyzed using the Langmuir binding model. Data were considered for inclusion in the analysis only if the Chit value (the measure of error between measured and fitted values) was less than 10% of the Rₘₐₓ as per the manufacturer's instructions (Bio-Rad). Kₐ (1/Ms), Kd (1/s) and KD (nM) were calculated by the ProteOn Manager software and are represented as mean (+SD) from at least triplicate experiments. Significance was determined using one-way ANOVA with Dunnett's multiple comparisons testing. […]

[3] = target: mIFNAR2-ECD C94S (extracellular domain of mouse IFNAR2, His-tagged) (mouse) (UniProt O35664); assay: SPR, ProteOn XPR36, His-tagged receptor on HTG chip
[4] = target: T1, mIFNAR1-ECD (extracellular domain of …); assay: as above
Protocol: as §1

[5] = target: T1, mIFNAR1-ECD (extracellular domain of …); assay: SPR, ProteOn XPR36, His-tagged receptor on HTG chip, Langmuir model, n=9 experiments
Protocol: as §1

[6] = target: T2, huIFNAR2 (human, UniProt P48551 27-243, limits assumed); assay: microscale thermophoresis (MST)
T2 sequence (looked up): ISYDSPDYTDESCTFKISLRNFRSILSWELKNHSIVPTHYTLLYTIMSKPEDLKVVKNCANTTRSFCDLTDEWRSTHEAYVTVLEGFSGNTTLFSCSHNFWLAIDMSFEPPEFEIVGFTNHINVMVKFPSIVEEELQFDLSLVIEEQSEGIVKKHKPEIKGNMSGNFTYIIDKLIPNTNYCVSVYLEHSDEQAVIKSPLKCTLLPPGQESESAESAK

[7] = target: T2, huIFNAR2; assay: microscale thermophoresis (MST), E. coli expressed huIFNε

mIFNAR2-ECD C94S (extracellular domain of mouse IFNAR2, His-tagged) (mouse), sequence (O35664 22-242, stated change not applied): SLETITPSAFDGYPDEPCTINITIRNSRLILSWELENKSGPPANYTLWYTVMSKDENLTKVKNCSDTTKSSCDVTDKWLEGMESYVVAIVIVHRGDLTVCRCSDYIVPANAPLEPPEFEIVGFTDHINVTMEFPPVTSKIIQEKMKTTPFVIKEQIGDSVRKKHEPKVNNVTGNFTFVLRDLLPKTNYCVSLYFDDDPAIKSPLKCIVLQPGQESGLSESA

Molecule: recombinant murine interferon alpha 1 (rmIFNα1) (from UniProt P01572 24-189) (ligand)
Kd [1]: 1.68 nM

B2: recombinant murine interferon epsilon (rmIFNε) (ligand)
chain: LEPKRIPFQLWMNRESLQLLKPLPSSSVQQCLAHRKNFLLPQQPVSPHQYQEGQVLAVVHEILQQIFTLLQTHGTMGIWEENHIEKVLAALHRQLEYVESLGGLNAAQKSGGSSAQNLRLQIKAYFRRIHDYLENQRYSSCAWIIVQTEIHRCMFFVFRFTTWLSRQDPDP
notes: also called muIFNε; MuIFNε
fold lower affinity than rmIFNα1 [3]: > 1000 fold | fold lower affinity than the rmIFNβ-IFNAR1-ECD interaction [4]: ~200 fold | Kd [5]: 556 nM

Further lines, results first:

Kd [2]: 2.45 nM
B1: recombinant murine interferon beta (rmIFNβ) (ligand, UniProt P01575 22-182, looked up)
chain: INYKQLQLQERTNIRKCQELLEQLNGKINLTYRADFKIPMEMTEKMQKSYTAFAIQEMLQNVFLVFRNNFSSTGWNETIVVRLLDELHQQTVFLKTVLEEKQEERLTWEMSSTALHLKSYYWRVQRYLKLMKYNSYAWMVVRAEIFRNFLIIRRLTRNFQN
notes: Printed as 'rmIFN' with the Greek letter lost

Kd [6]: 0.25 nM
B3: huIFNβ (ligand, human, UniProt P01574 22-187, looked up)
chain: MSYNLLGFLQRSSNFQCQKLLWQLNGRLEYCLKDRMNFDIPEEIKQLQQFQKEDAALTIYEMLQNIFAIFRQDSSSTGWNETIVENLLANVYHQINHLKTVLEEKLEKEDFTRGKLMSSLHLKRYYGRILHYLKAKEYSHCAWTIVRVEILRNFYFINRLTGYLRN
notes: Comparator in the MST measurement; The source of the protein is not clearly stated; also called rhuIFNβ

Kd [7]: 8190 nM
B4: human interferon epsilon (huIFNε), E. coli expressed and refolded (ligand)
chain: LDLKLIIFQQRQVNQESLKLLNKLQTLSIQQCLPHRKNFLLPQKSLSPQQYQKGHTLAILHEMLQQIFSLFRANISLDGWEENHTEKFLIQLHQQLEYLEALMGLEAEKLSGTLGSDNLRLQVKMYFRRIHDYLENQDYSTCAWAIVQVEISRCLFFVFSLTEKLSKQGRPLNDMKQELTTEFRSPRSA
notes: also called hIFN; rhIFN
